Reference: patent US20240116985A1 (published 2024)
Starred links: 1 amine or outer side, 2 acyl side, 3 side chain; linkers in the order of their positions; H or OH if unused. Positions of bridges follow the written chain, without caps; N, C: chain ends. Non-standard residues stand in square brackets, D forms with d. Primed or numbered codes have the meaning given here. *: point of attachment. PyrS2″ = (S)-3-amino-1-((pent-4-en-1-yloxy)carbonyl)pyrrolidine-3-carboxylic acid (stapling residue), C=CCCCOC(=O)N1CC[C@@](N[*:1])(C(=O)[*:2])C1; B5(18) = 2,2-bis(4-pentenyl)glycine (2-amino-2-(pent-4-en-1-yl)hept-6-enoic acid), stitching residue, C=CCCCC(CCCC=C)(N[*:1])C(=O)[*:2]; B5(24) = 2-amino-2-(pent-4-en-1-yl)hept-6-enoic acid, 2,2-bis(4-pentenyl)glycine (stitching residue), C=CCCCC(CCCC=C)(N[*:1])C(=O)[*:2]; B5(4) = 2,2-bis(4-pentenyl)glycine = 2-amino-2-(pent-4-en-1-yl)hept-6-enoic acid (stitching residue), C=CCCCC(CCCC=C)(N[*:1])C(=O)[*:2]; B5(5) = 2,2-bis(4-pentenyl)glycine, 2-amino-2-(pent-4-en-1-yl)hept-6-enoic acid (stitching residue), C=CCCCC(CCCC=C)(N[*:1])C(=O)[*:2]; TfeGA = (S)-2-amino-3-((carboxymethyl)(2,2,2-trifluoroethyl)amino)propanoic acid, O=C([C@H](CN(CC(=O)[*:3])CC(F)(F)F)N[*:1])[*:2]; B5(3) = 2,2-bis(4-pentenyl)glycine (stitching residue), C=CCCCC(CCCC=C)(N[*:1])C(=O)[*:2]; mPEG2 = N-terminal 3-(2-methoxyethoxy)propanoic acid, COCCOCCC(=O)*; Phe(3-CF3) = N[C@@H](Cc1cccc(C(F)(F)F)c1)C(=O)O; Phe(3-OMe) = COc1cccc(C[C@H](N)C(=O)O)c1; Phe(2-Cl) = N[C@@H](Cc1ccccc1Cl)C(=O)O; Bta = N[C@@H](Cc1csc2ccccc12)C(=O)O; αAllylPro = C=CC[C@@]1(C(=O)O)CCCN1; tBuAla = CC(C)(C)C[C@H](N)C(=O)O; Cha = N[C@@H](CC1CCCCC1)C(=O)O; Leu(ol) = CC(C)C[C@H](N)CO; TfeGA″ = not defined here

T1: B-cat-Halo (UniProt P35222 1-781)
T1 sequence (looked up): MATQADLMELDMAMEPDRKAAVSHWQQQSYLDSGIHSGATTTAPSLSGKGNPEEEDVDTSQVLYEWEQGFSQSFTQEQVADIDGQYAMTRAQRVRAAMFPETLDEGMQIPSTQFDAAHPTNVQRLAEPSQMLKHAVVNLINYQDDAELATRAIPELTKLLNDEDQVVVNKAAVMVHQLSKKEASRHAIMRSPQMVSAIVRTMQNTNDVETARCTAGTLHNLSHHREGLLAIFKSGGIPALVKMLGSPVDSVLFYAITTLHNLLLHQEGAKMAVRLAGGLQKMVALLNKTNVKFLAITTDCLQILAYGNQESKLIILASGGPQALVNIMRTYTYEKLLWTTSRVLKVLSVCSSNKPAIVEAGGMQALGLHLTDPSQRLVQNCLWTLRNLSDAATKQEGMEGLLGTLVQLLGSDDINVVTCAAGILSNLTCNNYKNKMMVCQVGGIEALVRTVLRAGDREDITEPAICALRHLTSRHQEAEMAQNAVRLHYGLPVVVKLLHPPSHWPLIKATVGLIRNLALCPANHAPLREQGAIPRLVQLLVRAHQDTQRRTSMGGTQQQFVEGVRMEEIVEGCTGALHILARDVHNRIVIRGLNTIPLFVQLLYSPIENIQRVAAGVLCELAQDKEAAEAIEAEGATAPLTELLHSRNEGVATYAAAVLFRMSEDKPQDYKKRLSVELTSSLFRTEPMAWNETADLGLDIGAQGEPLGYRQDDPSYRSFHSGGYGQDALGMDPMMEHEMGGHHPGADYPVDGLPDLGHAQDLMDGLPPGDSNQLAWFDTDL

T2: B-cat-Halo (UniProt P35222 1-781)
T2 sequence (looked up): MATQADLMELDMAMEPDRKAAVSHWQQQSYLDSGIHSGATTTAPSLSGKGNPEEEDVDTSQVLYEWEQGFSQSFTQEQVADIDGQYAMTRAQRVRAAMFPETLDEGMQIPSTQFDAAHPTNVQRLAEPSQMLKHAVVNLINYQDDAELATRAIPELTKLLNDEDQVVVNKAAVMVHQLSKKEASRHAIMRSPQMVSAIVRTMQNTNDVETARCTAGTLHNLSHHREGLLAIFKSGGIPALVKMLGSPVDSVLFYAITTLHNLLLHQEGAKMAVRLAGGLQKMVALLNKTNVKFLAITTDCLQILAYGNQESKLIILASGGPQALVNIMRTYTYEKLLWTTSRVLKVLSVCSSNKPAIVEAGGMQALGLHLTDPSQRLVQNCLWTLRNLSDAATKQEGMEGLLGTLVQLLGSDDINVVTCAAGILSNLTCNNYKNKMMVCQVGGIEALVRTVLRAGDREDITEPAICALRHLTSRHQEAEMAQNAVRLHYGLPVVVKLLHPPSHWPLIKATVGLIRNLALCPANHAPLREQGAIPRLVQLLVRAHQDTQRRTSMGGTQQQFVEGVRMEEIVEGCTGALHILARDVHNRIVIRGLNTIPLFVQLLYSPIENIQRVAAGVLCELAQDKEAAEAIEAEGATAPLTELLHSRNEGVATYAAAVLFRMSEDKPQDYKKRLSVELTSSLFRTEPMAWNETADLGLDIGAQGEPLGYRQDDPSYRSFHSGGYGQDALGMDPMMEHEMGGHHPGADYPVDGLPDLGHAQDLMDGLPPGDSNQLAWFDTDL

T3: B-cat-Halo (beta-catenin HaloTag NanoBRET construct expressed in HEK293 cells) (Homo sapiens (Human), UniProt P35222 1-781)
T3 sequence: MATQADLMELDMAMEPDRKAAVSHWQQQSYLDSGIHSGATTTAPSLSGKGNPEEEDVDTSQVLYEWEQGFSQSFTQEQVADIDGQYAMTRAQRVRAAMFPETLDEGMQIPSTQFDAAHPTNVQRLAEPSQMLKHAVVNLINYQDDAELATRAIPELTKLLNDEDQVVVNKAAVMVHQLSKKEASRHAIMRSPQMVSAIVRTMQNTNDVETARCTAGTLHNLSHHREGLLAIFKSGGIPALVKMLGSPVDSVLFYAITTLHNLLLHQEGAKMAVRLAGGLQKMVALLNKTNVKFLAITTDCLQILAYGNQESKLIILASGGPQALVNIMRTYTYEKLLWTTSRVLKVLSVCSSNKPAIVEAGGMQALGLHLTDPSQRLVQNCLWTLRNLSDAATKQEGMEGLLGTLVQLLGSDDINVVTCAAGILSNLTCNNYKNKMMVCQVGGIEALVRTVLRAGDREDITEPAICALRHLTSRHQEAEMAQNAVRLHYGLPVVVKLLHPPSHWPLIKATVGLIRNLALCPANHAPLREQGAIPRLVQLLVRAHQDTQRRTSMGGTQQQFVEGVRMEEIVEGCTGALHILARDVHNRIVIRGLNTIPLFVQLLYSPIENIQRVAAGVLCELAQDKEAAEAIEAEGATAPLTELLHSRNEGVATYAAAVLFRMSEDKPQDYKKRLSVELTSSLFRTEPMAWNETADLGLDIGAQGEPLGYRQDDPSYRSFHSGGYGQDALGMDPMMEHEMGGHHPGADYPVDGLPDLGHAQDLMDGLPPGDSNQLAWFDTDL


How the values were obtained:
Test in all cases: cell-based or functional assay
B-cat-Halo [1] = target: T1, B-cat-Halo
B-cat-Halo [2] = target: T2, B-cat-Halo; remark: listed apart in the source
[3] = target: T3, B-cat-Halo (beta-catenin HaloTag …)

Binder | NanoBRET Abs IC50 (B-cat-Halo [1]) | NanoBRET Abs IC50 (B-cat-Halo [2]) | further results
Ac-[αAllylPro]D[tBuAla][B5(18)]DDAAFT[PyrS2″][Phe(2-Cl)][Bta]Q-NH2 (staple 1-4, 4-11) [I-1013] | – | 12.4 µM | –
Ac-[αAllylPro]D[tBuAla][B5(18)]D[TfeGA]LAFN[PyrS2″][Phe(2-Cl)][Bta]Q-NH2 (staple 1-4, 4-11) [I-1007] | – | 24.9 µM | –
Ac-[αAllylPro]D[Cha][B5(3)]DDAAFS[PyrS2″][Phe(2-Cl)][Bta]Q-NH2 (staple 1-4, 4-11 (inferred); not fully specified (residue 9); printed as Ac-PL3-Asp-Cha-B5-Asp-Asp-Ala-Ala-4F3MeF-Ser-PyrS2-2C1F-BztA-Gln-NH2) [I-1120] | > 20 µM | – | –
Ac-[αAllylPro]D[tBuAla][B5(18)]D[TfeGA]KAFN[PyrS2″][Phe(2-Cl)][Bta]Q-NH2 (staple 1-4, 4-11) [I-1011] | – | 20.8 µM | –
Ac-[αAllylPro]D[Cha][B5(3)]DDAA[Phe(3-OMe)]S[PyrS2″][Phe(2-Cl)][Bta]Q-NH2 (staple 1-4, 4-11 (inferred)) [I-1118] | 29.5 µM | – | –
Ac-[αAllylPro]D[tBuAla][B5(18)]D[TfeGA″]SAFN[PyrS2″][Phe(2-Cl)][Bta]Q-NH2 (staple 1-4, 4-11; reading uncertain) [I-1009] | – | 33.3 µM | –
Ac-[αAllylPro]D[tBuAla][B5(18)]D[TfeGA]ASFN[PyrS2″][Phe(2-Cl)][Bta]Q-NH2 (staple 1-4, 4-11) [I-1004] | – | 10.6 µM | –
mPEG2-[αAllylPro]D[tBuAla][B5(5)]DDAAFN[PyrS2″][Phe(2-Cl)][Bta][dT]-NH2 (staple 1-4, 4-11) [I-1253] | – | – | NanoBRET Abs IC50 [3]: > 20 µM
Ac-[αAllylPro]D[tBuAla][B5(4)]DDAAFT[PyrS2″][Phe(2-Cl)][Bta][Leu(ol)] (staple 1-4, 4-11) [I-1247] | – | – | NanoBRET Abs IC50 [3]: > 20 µM
Ac-[αAllylPro]D[tBuAla][B5(18)]DNAAFT[PyrS2″][Phe(2-Cl)][Bta]S-NH2 (staple 1-4, 4-11) [I-1016] | – | 21.4 µM | –
Ac-[αAllylPro]D[tBuAla][B5(18)]D[TfeGA]AKFN[PyrS2″][Phe(2-Cl)][Bta]Q-NH2 (staple 1-4, 4-11) [I-1006] | – | > 20 µM | –

Second part, led by results:

NanoBRET Abs IC50 (B-cat-Halo [1]) | NanoBRET Abs IC50 (B-cat-Halo [2]) | Binder | further results
14.9 µM | – | Ac-[αAllylPro]D[Cha][B5(24)]DDAAFS[PyrS2″][Phe(2-Cl)][Bta][dT]-NH2 (staple 1-4, 4-11) [I-1136] | –
> 20 µM | – | Ac-[αAllylPro]D[Cha][B5(3)]DDAA[Phe(3-CF3)]S[PyrS2″]F[Bta]Q-NH2 (staple 1-4, 4-11 (inferred)) [I-1125] | –
12.3 µM | – | Ac-[αAllylPro]D[tBuAla][B5(3)]DDAA[Phe(3-CF3)]L[PyrS2″][Phe(2-Cl)][Bta]Q-NH2 (staple 1-4, 4-11 (inferred)) [I-1122] | –
9.2 µM | – | Ac-[αAllylPro]D[tBuAla][B5(3)]DDAA[Phe(3-OMe)]L[PyrS2″][Phe(2-Cl)][Bta]Q-NH2 (staple 1-4, 4-11 (inferred)) [I-1121] | –
8.1 µM | – | Ac-[αAllylPro]D[tBuAla][B5(3)]DDAA[Phe(3-CF3)]L[PyrS2″]F[Bta]Q-NH2 (staple 1-4, 4-11 (inferred)) [I-1128] | –
28.5 µM | – | Ac-[αAllylPro]D[tBuAla][B5(3)]DDAAFL[PyrS2″][Phe(2-Cl)][Bta]Q-NH2 (staple 1-4, 4-11 (inferred); not fully specified (residue 9); printed as Ac-PL3-Asp-Npg-B5-Asp-Asp-Ala-Ala-4F3MeF-Leu-PyrS2-2C1F-BztA-Gln-NH2) [I-1123] | –
